Paper PMC10229872

Molecular target: Programmed cell death-1 (human (endogenous in PBMCs)) (UniProt Q15116)
UniProt Q15116, sequence (Q15116 25-288): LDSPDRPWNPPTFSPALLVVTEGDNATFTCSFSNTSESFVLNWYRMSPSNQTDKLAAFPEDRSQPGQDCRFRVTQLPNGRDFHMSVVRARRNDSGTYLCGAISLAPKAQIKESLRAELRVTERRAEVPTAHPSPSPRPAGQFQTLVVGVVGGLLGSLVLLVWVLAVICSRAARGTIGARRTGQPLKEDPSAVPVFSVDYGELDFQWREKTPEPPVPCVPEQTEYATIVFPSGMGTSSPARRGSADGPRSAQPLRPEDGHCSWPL

“soluble monomeric human PD-L1 (from UniProt Q9NZQ7 19-229) (domain or fragment)” showed a reduction of intracellular IFN-gamma in PBMCs stimulated with anti-CD3/CD28 antibodies (FACS) of 55.3%, a reduction of intracellular IL-2 in PBMCs stimulated with anti-CD3/CD28 antibodies (FACS) of 32.5% and a reduction of intracellular IL-10 in PBMCs stimulated with anti-CD3/CD28 antibodies (FACS) of 48.5%. For the same substance, the reduction of intracellular TNF-alpha in PBMCs stimulated with anti-CD3/CD28 antibodies (FACS) was 47.3%.
“soluble recombinant Fc fusion protein of hPD-L1 (from UniProt Q9NZQ7 19-229)” was tested, and the increase of intracellular IL-2 in PBMCs stimulated with anti-CD3/CD28 antibodies (FACS) was 14.2% and the reduction of intracellular IFN-gamma in PBMCs stimulated with anti-CD3/CD28 antibodies (FACS) was 15.1%.
